Experimental data taken from patent US20100015126A1, “Methods of Binding of Cross-Beta Structures By Chaperones” (priority 2006, published 2010).

Columns and labels:
Assay in all cases: cell-based or functional assay
[1] = molecular target: synthetic human Aβ25-35 (6BB6) (human)
[2] = molecular target: synthetic peptide 6BB11
[3] = molecular target: synthetic human Aβ16-22 (6BB12) (human)
[4] = molecular target: synthetic peptide 6BB10
[5] = molecular target: synthetic peptide 6BB13
[6] = molecular target: synthetic peptide 6BB9

Sequence of recombinant human BiP with C-terminal linker, FLAG-tag and His-tag (BiP-FLAG-His), P11021 19-654 (P11021 other isoform, or with tags, fused parts or gaps): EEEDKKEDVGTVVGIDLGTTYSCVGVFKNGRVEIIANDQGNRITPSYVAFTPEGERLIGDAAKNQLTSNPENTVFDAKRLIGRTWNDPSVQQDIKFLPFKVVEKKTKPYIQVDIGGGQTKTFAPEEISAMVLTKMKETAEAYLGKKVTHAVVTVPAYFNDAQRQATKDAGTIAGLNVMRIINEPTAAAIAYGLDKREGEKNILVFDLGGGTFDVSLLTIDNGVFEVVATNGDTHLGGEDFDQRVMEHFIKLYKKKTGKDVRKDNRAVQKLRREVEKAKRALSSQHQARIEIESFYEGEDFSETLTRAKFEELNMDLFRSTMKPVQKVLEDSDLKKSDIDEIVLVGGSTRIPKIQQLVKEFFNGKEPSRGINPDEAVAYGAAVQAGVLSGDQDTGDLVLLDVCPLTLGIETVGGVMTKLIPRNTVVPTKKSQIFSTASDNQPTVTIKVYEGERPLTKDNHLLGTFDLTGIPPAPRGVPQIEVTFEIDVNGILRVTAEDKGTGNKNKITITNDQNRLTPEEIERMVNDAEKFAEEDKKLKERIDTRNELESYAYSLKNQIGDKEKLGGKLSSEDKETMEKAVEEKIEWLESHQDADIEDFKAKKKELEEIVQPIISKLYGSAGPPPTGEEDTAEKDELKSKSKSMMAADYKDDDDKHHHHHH

**Q.** “recombinant human BiP with C-terminal linker, FLAG-tag and His-tag (BiP-FLAG-His), P11021 19-654” was tested. Which Binding to DCs (MFI ratio), BiP, Aβ16-22/Aβ25-35 + BiP [1] did it give?
**A.** 261 MFI ratio

**Q.** What about the Binding to DCs (MFI ratio), BiP, mix of HSP70/BiP-binding peptides + BiP [2] of the same substance?
**A.** 1.8 MFI ratio

**Q.** And the Binding to DCs (MFI ratio), BiP, Aβ16-22/Aβ25-35 + BiP [3]?
**A.** 261 MFI ratio

**Q.** What about the Binding to DCs (MFI ratio), BiP, mix of HSP70/BiP-binding peptides + BiP [4] of the same substance?
**A.** 1.8 MFI ratio

**Q.** And the Binding to DCs (MFI ratio), BiP, mix of HSP70/BiP-binding peptides + BiP [5]?
**A.** 1.8 MFI ratio

**Q.** What about the Binding to DCs (MFI ratio), BiP, mix of HSP70/BiP-binding peptides + BiP [6] of the same substance?
**A.** 1.8 MFI ratio
